Patent US20180155451A1 (published 2018)
Where a chain is given by its changes, count along the chain named. Names may count otherwise. Each block holds one binder with its values, some of them ahead of it.

What was measured:
[1] = target: T1, FcγRIIb (human, UniProt P31994 43-217); assay: SPR (Biacore), KD
T1 construct: extracellular domain; for crystallography expressed with Kifunesine and trimmed with Endo F1; also called FcgRIIb; FcgR2b; not shown: His tag attached to the C terminus
T1 sequence (looked up): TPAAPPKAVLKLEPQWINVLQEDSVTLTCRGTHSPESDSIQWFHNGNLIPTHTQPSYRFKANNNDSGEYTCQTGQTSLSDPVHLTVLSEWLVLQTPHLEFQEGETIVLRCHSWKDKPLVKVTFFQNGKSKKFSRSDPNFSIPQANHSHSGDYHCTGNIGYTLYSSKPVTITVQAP

[2] = target: T2, FcgRIIaR (human, UniProt P12318 34-217); assay: SPR (Biacore); KD of H240-Kn120/H240-Hl068/L73-k0 divided by KD of the sample
T2 construct: extracellular domain; R131 allotype; also called FcγRIIa R; FcgRIIa type R; not shown: C-terminal His tag
T2 sequence (looked up): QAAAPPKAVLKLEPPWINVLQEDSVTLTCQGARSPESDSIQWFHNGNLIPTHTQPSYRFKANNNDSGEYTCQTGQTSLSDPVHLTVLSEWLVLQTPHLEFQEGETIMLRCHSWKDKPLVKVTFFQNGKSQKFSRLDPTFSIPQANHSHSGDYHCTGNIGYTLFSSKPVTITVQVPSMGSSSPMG
Method: (§1) The variants described above were assessed for their binding to FcγR according to the method described in Reference Example 8.
(§2) Analysis of interaction between obj ective antibody and the FcγR was carried out using Biacore T100 (GE Healthcare), Biacore T200, Biacore A100, and Biacore 4000. HBS-EP+ (GE Healthcare) was used as the running buffer, and the measurement temperature was set to 25° C. Chips produced by immobilizing the antigen peptide by the amine coupling method to a Series S sensor Chip CM5 (GE Healthcare), chips produced by allowing preliminarily biotinylated antigen peptides to interact with and immobilize onto a Series S Sensor Chip SA (certified) (GE Healthcare), chips produced by immobilizing Protein L (ACTIGEN, BioVision) to Series S Sencor Chip CM5 (GE Healthcare), or chips produced by immobilizing Protein A/G (Thermo Scientific) to Series S Sencor Chip CM5 (GE Healthcare) were used. Antibodies of interest were captured onto these chips, and allowed to interact to each FcγR diluted with running buffer. To regenerate and repeatedly use the chip, the antibodies captured onto the chip were washed off by reacting 10 mM glycine-HCl, pH 1.5.

[3] = target: T3, FcgRIIaH (human, UniProt P12318 34-217); assay: as above
T3 construct: extracellular domain; H131 allotype; also called FcγRIIa H; FcgRIIa type H; not shown: C-terminal His tag
T3 sequence (looked up): T2 sequence (looked up) with R134H
Method: as §1, §2

[4] = target: T4, FcgRIIIaV (human, UniProt P08637 17-208); assay: as above
T4 construct: extracellular domain; V158 allotype; also called FcγRIIIa V; not shown: C-terminal His tag
T4 sequence (P08637 17-208 F176V limits assumed): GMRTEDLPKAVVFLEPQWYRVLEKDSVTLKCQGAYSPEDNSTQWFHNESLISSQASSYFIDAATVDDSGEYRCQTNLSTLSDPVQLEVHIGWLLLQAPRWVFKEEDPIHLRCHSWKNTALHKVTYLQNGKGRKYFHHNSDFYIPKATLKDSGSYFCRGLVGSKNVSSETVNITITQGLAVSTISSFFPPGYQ
Method: as §1, §2

[5] = target: T5, FcgRIIIaF (human, UniProt P08637 17-208); assay: as above
T5 construct: extracellular domain; F158 allotype; also called FcγRIIIa F; not shown: C-terminal His tag
T5 sequence (P08637 17-208): as the sequence (P08637 17-208 F176V limits assumed) above, with V160F counted along it
Method: as §1, §2

[6] = target: T6, FcgRIIb (human, UniProt P31994 43-217); assay: as above
T6 construct: extracellular domain; also called FcγRIIb; CD32B; not shown: C-terminal His tag
T6 sequence (looked up): T1 sequence (looked up)
Method: as §1, §2

[7] = target: T2, FcgRIIaR; assay: SPR (Biacore), antibody captured on chip, FcgR as analyte
Method: as §1, §2

[8] = target: T3, FcgRIIaH; assay: as above
Method: as §1, §2

[9] = target: T4, FcgRIIIaV; assay: as above
Method: as §1, §2

[10] = target: T5, FcgRIIIaF; assay: as above
Method: as §1, §2

[11] = target: T6, FcgRIIb; assay: as above
Method: as §1, §2

[12] = target: T7, FcgRIa (human, UniProt P12314 16-292); assay: SPR (Biacore 4000), antibody captured on chip, FcgR as analyte; kd below the limit 5e-5 /s
T7 construct: extracellular domain; also called FcγRIa; FcγRI; not shown: C-terminal His tag
T7 sequence (P12314 16-292): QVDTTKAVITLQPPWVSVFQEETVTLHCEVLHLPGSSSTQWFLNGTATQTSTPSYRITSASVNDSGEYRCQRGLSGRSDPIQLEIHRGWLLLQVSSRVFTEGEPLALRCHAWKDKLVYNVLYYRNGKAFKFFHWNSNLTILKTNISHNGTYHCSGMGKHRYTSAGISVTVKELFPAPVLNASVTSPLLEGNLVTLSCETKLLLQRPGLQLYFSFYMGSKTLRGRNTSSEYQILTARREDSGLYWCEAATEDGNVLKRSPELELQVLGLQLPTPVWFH
Method: as §1, §2

[13] = target: T8, FcγRIIIa (human, UniProt P08637 17-208); assay: SPR (Biacore), KD
T8 construct: extracellular domain; not shown: His tag attached to the C terminus
T8 sequence (P08637 17-208): as the sequence (P08637 17-208 F176V limits assumed) above, with V160F counted along it

B1: H240-Kn120/H240-Hl068/L73-k0 (antibody, human IgG1, kappa)
heavy 1: QDQLVQSGAEVKKPGASVKVSCKASGFNIKDTYIQWVRQAPGQGLEWMGRIDPLRKQTKYREKFEGRVTITADTSTNTAYMELSSLRSEDTAVYYCVRSGREFDYWGQGTLVTVSSASTKGPSVFPLAPSSKSTSGGTAALGCLVKDYFPEPVTVSWNSGALTSGVHTFPAVLQSSGLYSLSSVVTVPSSSLGTQTYICNVNHKPSNTKVDKKVEPKSCDKTHTCPPCPAPEYYWGPMVFLFPPKPKDTLMISRTPEVTCVVVDVSDEDPEVKFNWYVDGVEVHNAKTKPREEQYNATYRVVSVLTVLHQDWLNGKEYKCKVSNKDLPAPIEKTISKAKGQPREPQVCTLPPSRDELTKNQVSLWCLVKGFYPSDIAVEWESNGQPENNYKTTPPVLDSDGSFFLYSKLTVDKSRWQQGNVFSCSVMHEALHNHYTQKSLSLSP
heavy 2: QDQLVQSGAEVKKPGASVKVSCKASGFNIKDTYIQWVRQAPGQGLEWMGRIDPLRKQTKYREKFEGRVTITADTSTNTAYMELSSLRSEDTAVYYCVRSGREFDYWGQGTLVTVSSASTKGPSVFPLAPSSKSTSGGTAALGCLVKDYFPEPVTVSWNSGALTSGVHTFPAVLQSSGLYSLSSVVTVPSSSLGTQTYICNVNHKPSNTKVDKKVEPKSCDKTHTCPPCPAPELLGGPSVFLFPPKPKDTLMISRTPEVTCVVVDVSHEEPEVKFNWYVDGVEVHNAKTKPREEQYNSTYRVVSVLTVLHQDWLNGKEYKCKVSNDALPKPIEETISKAKGQPREPQVYTLPPSRCELTKNQVSLSCAVKGFYPSDIAVEWESNGQPENNYKTTPPVLDSDGSFFLVSKLTVDKSRWQQGNVFSCSVMHEALHNHYTQKSLSLSP
light: DIQMTQSPSSLSASVGDRVTITCRASQDIHKYIAWYQQKPGQAPRLLIQYTSTLQPGVPSRFSGSGSGTDYTFTISSLQPEDIATYYCLQYEQLRTFGGGTKVEIKRTVAAPSVFIFPPSDEQLKSGTASVVCLLNNFYPREAKVQWKVDNALQSGNSQESVTEQDSKDSTYSLSSTLTLSKADYEKHKVYACEVTHQGLSSPVTKSFNRGEC
notes: S239M added to H240-Kn067
fold increase of binding activity over native IgG1 [1]: ~50 fold

B3: H240-Kn192/H240-Hl204/L73-k0 (antibody, human IgG1, kappa)
heavy 1: B1 heavy 1 with Y234N, E293K
heavy 2: B1 heavy 2 with G235T, I331E
light: B1 light
notes: Heterodimerized anti-epiregulin antibody
Relative KD [2]: 1.1
Relative KD [3]: 1
Relative KD [4]: 0.2
Relative KD [5]: 0.2
Relative KD [6]: 0.5
Kd [7]: 19 nM
Kd [8]: 42 nM
Kd [9]: 2.2 nM
Kd [10]: 12 nM
Kd [11]: 290 nM
Kd [12]: < 0.019 nM

Now from value to binder:

Relative KD [2]: 1.3
Relative KD [3]: 1.2
Relative KD [4]: 0.2
Relative KD [5]: 0.2
Relative KD [6]: 0.5
Kd [7]: 16 nM
Kd [8]: 35 nM
Kd [9]: 1.8 nM
Kd [10]: 11 nM
Kd [11]: 290 nM
Kd [12]: < 0.024 nM
B2: H240-Kn193/H240-Hl204/L73-k0 (antibody, human IgG1, kappa)
heavy 1: B1 heavy 1 with Y234N, E293R
heavy 2: B1 heavy 2 with G235T, I331E
light: B1 light
notes: as for B3

fold enhancement of binding against GpH7-A5/GpH7-B78/GpL16-k0 [13]: ≥ 10 fold
B4: GpH7-TA7/GpH7-B78/GpL16-k0 (antibody, human IgG1, kappa)
heavy 1: QVQLVQSGAEVKKPGASVTVSCKASGYTFTDYEMHWIRQPPGEGLEWIGAIDPKTGDTAYSESFQDRVTLTADKSTSTAYMELSSLTSEDTAVYYCTRFYSYTYWGQGTLVTVSSASTKGPSVFPLAPSSKSTSGGTAALGCLVKDYFPEPVTVSWNSGALTSGVHTFPAVLQSSGLYSLSSVVTVPSSSLGTQTYICNVNHKPSNTKVDKKVEPKSCDKTHTCPPCPAPEYLWGPSVFLFPPKPKDTLMISRTPEVTCVVVDVSHEDPEVKFNWYVDGVEVHNAKTKPREEQYNATYRVVSVLTVLHQDWLNGKEYKCKVSNKALPAPIEKTISKAKGQPREPQVYTLPPSRKELTKNQVSLTCLVKGFYPSDIAVEWESNGQPENNYKTTPPVLDSDGSFFLYSKLTVDKSRWQQGNVFSCSVMHEALHNRYTQKSLSLSP
heavy 2: B4 heavy 1 with Y232L, W234G, S237D, A296S, A328L, I330E, K354D, R433H, K437E
light: DIVMTQSPLSLPVTPGEPASISCQASESLVHSNRNTYLHWYLQKPGQSPQLLIYKVSNRFSGVPDRFSGSGSGTDFTLKISRVEAEDVGVYYCSQNTHVPPTFGQGTKVEIERTVAAPSVFIFPPSDEQLKSGTASVVCLLNNFYPREAKVQWKVDNALQSGNSQESVTEQDSKDSTYSLSSTLTLSKADYEKHKVYACEVTHQGLSSPVTKSFNRGEC
notes: L234Y/G236W/S298A in one H chain, S239D/A330L/I332E in the other
